We go through one molecule from patent US20110126299A1 (published 2011).

For this test, the target named is Id(λ2^315)-peptide (amino acids 91 to 101) presented on I-E^d (mouse, UniProt P01904 26-216; P01915 32-225). In words: cell-based or functional assay.
Sequence of Id(λ2^315)-peptide (amino acids 91 to 101) presented on I-E^d (P01904 26-216, chain 1 of 2): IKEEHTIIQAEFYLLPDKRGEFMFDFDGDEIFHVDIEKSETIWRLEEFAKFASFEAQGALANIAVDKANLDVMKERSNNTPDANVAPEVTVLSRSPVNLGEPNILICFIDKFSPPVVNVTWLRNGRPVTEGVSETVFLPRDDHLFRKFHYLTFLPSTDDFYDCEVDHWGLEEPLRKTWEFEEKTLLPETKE
Sequence of Id(λ2^315)-peptide (amino acids 91 to 101) presented on I-E^d (P01915 32-225, chain 2 of 2): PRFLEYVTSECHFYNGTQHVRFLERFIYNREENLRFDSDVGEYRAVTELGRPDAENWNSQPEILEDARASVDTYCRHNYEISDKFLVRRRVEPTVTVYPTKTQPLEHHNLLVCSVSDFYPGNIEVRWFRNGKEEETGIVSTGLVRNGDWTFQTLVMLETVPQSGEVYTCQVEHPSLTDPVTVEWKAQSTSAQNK

B1: Id-specific αβ TCR specific for the Id(λ2^315)-peptide (amino acids 91 to 101) presented on I-E^d (TCR, V domains shown)
V domain 1: QQKVQQSPESLIVPEGAMTSLNCTFSDSASQYFAWYRQQSGKAPKALMSIFSNGEKEEGRFTIHLNKASLHFSLHIRDSQPSDSALYLCAVRGPNTGNYKYVFGAGTRLKVIA
V domain 2: EAAVTQSPRNKVAVTGGKVTLSCNQTNNHNNMYWYRQDTGHGLRLIHYSYGAGSTEKGDIPDGYKASRPSQENFSLILELATPSQTSVYFCASGDAGQGHSDYTFGSGTRLLVI
In the case of B1, the “light emissions (NF-κB-luciferase bioluminescence in vivo, 24 hours after transfer of Id^+ splenocytes into RAG2^-/^- mice carrying Id-specific Luc^+ T cells)” value is 4 fold.
